Columns and labels:
[1] = test system: chemically acetylated cytochrome c; assay: titrated acetate release assay of deacetylation activity; type: biochemical; conditions: in vitro, in the presence and absence of NAD
Experimental: (§1) The activity of these proteins was determined in vitro using either a ^14C-nicotinamide release assay or a titrated acetate release assay.
Recombinant GST-SIRT2 deacetylation activity was tested on chemically acetylated cytochrome c in the presence and absence of NAD. Deacetylation activity was determined in vitro using a titrated acetate release assay.
Recombinant GST-SIRT3 deacetylation activity was tested on chemically acetylated cytochrome c in the presence and absence of NAD. The recombinant SIRT3 was a fragment of human SIRT3 lacking the first 100 amino acids of the N-terminus of full length human SIRT3. Deacetylation activity was determined in vitro using a titrated acetate release assay.

[2] = test system: chemically acetylated cytochrome c; assay: 14C-nicotinamide release assay of deacetylation activity; type: biochemical; conditions: in vitro, enzyme from pull down of 293T cell extracts, GFP as control
Experimental: as §1
Cell derived GST-SIRT3 deacetylation activity was tested on chemically acetylated cytochrome c. The SIRT3 was derived from “pull down” 293T extracts.
Deacetylation activity was determined in vitro using a ^14C-nicotinamide release assay. Deacetylation was determined for GFP (control) with chemically acetylated cytochrome c, SIRT3-GFP with chemically acetylated cytochrome c, and SIRT3-GFP with histone 4.

B1: recombinant GST-SIRT3: recombinant GST fusion of a fragment of human SIRT3 lacking the first 100 amino acids of the N-terminus (protein)
chain: SISFSVGASSVVGSGGSSDKGKLSLQDVAELIRARACQRVVVMVGAGISTPSGIPDFRSPGSGLYSNLQQYDLPYPEAIFELPFFFHNPKPFFTLAKELYPGNYKPNVTHYFLRLLHDKGLLLRLYTQNIDGLERVSGIPASKLVEAHGTFASATCTVCQRPFPGEDIRADVMADRVPRCPVCTGVVKPDIVFFGEPLPQRFLLHVVDFPMADLLLILGTSLEVEPFASLTEAVRSSVPRLLINRDLVGPLAWHPRSRDVAQLGDVVHGVESLVELLGWTEEMRDLVQRETGKLDGPDK
modifications: left off: a dimerising Fc or GST
notes: recombinant GST fusion of a fragment of human SIRT3 lacking the first 100 amino acids of the N-terminus
With B1 the “deacetylation activity on chemically acetylated cytochrome c” value (shortened to “deacetylation activity”) [1] was “deacetylates cytochrome c in a NAD dependent manner”.

B2: recombinant GST-SIRT2: recombinant GST fusion of human SIRT2, NAD-dependent deacetylase (protein)
chain: MAEPDPSHPLETQAGKVQEAQDSDSDSEGGAAGGEADMDFLRNLFSQTLSLGSQKERLLDELTLEGVARYMQSERCRRVICLVGAGISTSAGIPDFRSPSTGLYDNLEKYHLPYPEAIFEISYFKKHPEPFFALAKELYPGQFKPTICHYFMRLLKDKGLLLRCYTQNIDTLERIAGLEQEDLVEAHGTFYTSHCVSASCRHEYPLSWMKEKIFSEVTPKCEDCQSLVKPDIVFFGESLPARFFSCMQSDFLKVDLLLVMGTSLQVQPFASLISKAPLSTPRLLINKEKAGQSDPFLGMIMGLGGGMDFDSKKAYRDVAWLGECDQGCLALAELLGWKKELEDLVRREHASIDAQSGAGVPNPSTSASPKKSPPPAKDEARTTEREKPQ
modifications: left off: a dimerising Fc or GST
notes: recombinant GST fusion of human SIRT2, NAD-dependent deacetylase
With B2 the “deacetylation activity” value [1] was “deacetylates cytochrome c in a NAD dependent manner”.

B3: cell derived SIRT3: SIRT3 enzyme derived from pull down of 293T cell extracts (protein)
chain: MAFWGWRAAAALRLWGRVVERVEAGGGVGPFQACGCRLVLGGRDDVSAGLRGSHGARGEPLDPARPLQRPPRPEVPRAFRRQPRAAAPSFFFSSIKGGRRSISFSVGASSVVGSGGSSDKGKLSLQDVAELIRARACQRVVVMVGAGISTPSGIPDFRSPGSGLYSNLQQYDLPYPEAIFELPFFFHNPKPFFTLAKELYPGNYKPNVTHYFLRLLHDKGLLLRLYTQNIDGLERVSGIPASKLVEAHGTFASATCTVCQRPFPGEDIRADVMADRVPRCPVCTGVVKPDIVFFGEPLPQRFLLHVVDFPMADLLLILGTSLEVEPFASLTEAVRSSVPRLLINRDLVGPLAWHPRSRDVAQLGDVVHGVESLVELLGWTEEMRDLVQRETGKLDGPDK
modifications: left off: large carriers
notes: SIRT3 enzyme derived from pull down of 293T cell extracts
B3 was tested, and the “deacetylation activity” value [2] was “deacetylates cytochrome c”.

From patent publication US7771961B2, “Cytochrome c acetylation” (Elixir Pharmaceuticals, Inc, priority 2002, dated 2010)
